Measurements as given in patent US20210332110A1 (ROCKEFELLER UNIVERSITY, published 2021).

Biological target: Spike (S) protein of authentic SARS-CoV-2, strain USA-WA1/2020 (SARS-CoV-2, UniProt P0DTC2 14-1273)
Experiment: cell-based or functional assay

Row | Binder | IC50, neutralization of authentic SARS-CoV-2 [ng/mL]
1 | C121 (antibody, V domains shown) VH: not shown VL: QSALTQPASVSGSPGQSITISCTGTSSDVGSYNLVSWYQQHPGKAPKLMIYEGSKRPSGVSNRFSGSKSGNTASLTISGLQAEDEADYYCCSYAGSSTLVFGGGTKLTVL | 1.64
2 | C144 (antibody, V domains shown) VH: EVQLVESGGGLIQPGGSLRLSCAASGFTVSNNYMSWVRQAPGKGLEWVSVIYSGGSTYYADSVKGRFTISRDKSKNTLYLQMNRLRAEDTAVYYCAREGEVEGYNDFWSGYSRDRYYFDYWGQGTLVTVSS VL: QSALTQPASVSGSPGQSITISCTGTSSDVGGYNYVSWYQQHPGKAPKLMIYDVSNRPSGVSNRFSGSKSGNTASLTISGLQAEDEADYYCSSYTSSSTRVFGTGTKVTVL | 2.55
